# Laboratory results: the RNAGym collection of RNA variant scans (doi:10.1073/pnas.2313332121)
# B1: TPR t1 (parent)
# chain: GACCAAUCUGCCCUCAGAGCUCGAGAACAUCUUCGGAUGCAGAGGAGGCAGGCUUCGGUGGCGCGAUAGCGCCAACGUCCUCAACCUCCAAUGCAUCCCACCACAUGAUGAUGCCUGAAGAGCCUUGGUUUUUUG
# Variants of: B1
# Experiment: polymerase ribozyme fitness, log enrichment relative to wild type (log ratio); higher = more active; in vitro selection for triplet polymerase activity
# Method in brief: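 To select mutant libraries of each subunit of a heterodimeric triplet polymerase ribozyme, built by PCR and transcribed, each was annealed with a biotinylated primer, partner subunit and triplets, then incubated frozen at −7 °C. Extended constructs were gel-excised, captured on streptavidin beads and amplified by RT-PCR, in one round carried out in triplicate. Illumina sequencing of input and output libraries kept genotypes with ≥10 input reads and ≥1 read per output. Fitness is the base-2 logarithm of genotype enrichment relative to wild-type enrichment, from inverse-variance-weighted replicate averages.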
row,Variant,polymerase ribozyme fitness (log ratio)
1,C72U A111C A121U G128A,-1.12
2,A43U C56G U67A G69U G71C A75G C101A G107C C124G,-7.81
3,A75G A83C U130C U132A,0.388
4,U9G C12G U78C,0.323
5,G45A C85U,-1.45
6,A37U G39U G69A,-4.43
7,A2U A50U C56U,-3.13
8,G69C C123U,-0.24
9,C70U U131G,-2.36
10,C70U C86G,-1.54
11,C8A G93C A100C C115U,-4.5
12,C79A C115G A118U,-4.7
13,U7G G69C A100U,-2.07
14,G69C C89G,-3.31
15,C8G G19A,-1.89
16,C56G U87G,-0.352
17,C49G A66C C101G,-4.2
18,C8U C12A C72U G117C,-1.86
19,C49G G113U,-2.52
20,C8U C72U,0.252
21,C3U A46U C73A U87A,-0.663
22,C11G C15G G36U A74C G117C,0.809
23,C3U G42C A91C,-2.67
24,G61A C86A,-0.514

row,Variant,polymerase ribozyme fitness (log ratio)
1,G25C G69U A111U,-7
2,C12A U92A C97G C123G G128U,-6.73
3,G42A G44U C99A A100U U109A,-5.27
4,C8G C28A G61A,-3.79
5,C40G G61C,-2.49
6,A43G G71A C82A G120U A121C,-3.35
7,G10U C28U G63A,-4.31
8,A18U C62G,-4.86
9,A27U G36C G135U,-5.51
10,G10A U21A A27G C53A,-0.87
11,C102A U106A C115A U129A,-4.5
12,G17C A83C A119G,-1.01
13,C3U G58A C101G,-2.57
14,C76G G113U,-4.13
15,G10U A29U C86A U112C,-1.11
16,A46G C86A G120C,-0.884
17,G10A G71U U87C,-0.267
18,C20U A26C C89U C124A,-4.83
19,A91U G93C G113C G135U,-3.6
20,G19A A74C,-3.23
21,C40G U92G G120A,-2.62
22,C34A A50U G71C C123G,-4.86
23,C72U A118U,0.0221
24,G60U C73U U106A,-0.452

row,Variant,polymerase ribozyme fitness (log ratio)
1,C82U G128A,-2.32
2,G71A U92A C99G G120C,-7.51
3,A5U C28U C72A U78C,-1.78
4,G63U G77A,-3.45
5,G10A C34U G77A,-5.24
6,G19U G48C C123U,-5.25
7,A105U U125A,-2.77
8,G61U A66C U92A,-4.97
9,C72G A121G,0.881
10,C13U G63A,-0.373
11,G19U U55C G61C,-4.04
12,G10U U92C,-0.873
13,G44U G45C,-2.69
14,C8A C28G C64U C102A U109A,-4.53
15,G60U A121C,1.48
16,U9G A83C,0.502
17,U96A G120U,-0.867
18,A26G C56G C97U C99A A111G,-6.74
19,A24G C62A A74C G120C,-4.13
20,A18U C40A A41U,-3.61
21,C11U A26U U55C G71U,-3
22,G77A C80A U92C,-5.14
23,C40U C76U,-0.869
24,C104A C114A,-4.74

row,Variant,polymerase ribozyme fitness (log ratio)
1,G42A C62U A83C U112A,-2.06
2,A105C U112C,0.139
3,C3G G36A G39C C53U A121C,-2.59
4,C56U G60A,-3.37
5,C11G U32C A41G G45A A90C U96C C98U U106G A111U,-6.91
6,U78A A95U,-0.329
7,A2G C22G A26G A84U G122A U130C,-5.4
8,C8A C15A A29U G42U,-3.65
9,C12A C13G G45C A119U C124A U132A,0.6
10,G48U U59A G69C U116C C124U,-2.23
11,A50C U87A,-0.514
12,C12G C40U U55A C82G,-0.877
13,G36A G61A G77A,-1.53
14,C73A U133A,0.106
15,G45A G52C G57U,-2.04
16,C13U A46G,-1.03
17,C12U G57A G113C,-2.33
18,G61U G63C,-3.05
19,C72G C115U U116C,-2.72
20,A37U U112G,-1.14
21,C11U A26U C88A,-4.34
22,U7A C114A,-1.29
23,U33G G63C,-5.3
24,G69C A91C G113U,-4.43

row,Variant,polymerase ribozyme fitness (log ratio)
1,C53G C72G C123U,0.978
2,A6U A29G G71A A83G C89A U109C G120C C123G U132A,-6.04
3,C56A C72G U78C,-1.29
4,G19A G63C,-2.92
5,U87A U92G G93U C104A A111G C114U U130C,-7.15
6,C8G A46U,-0.191
7,G47A U59C C79G G120A G128A G135U,-5.95
8,C13U G63A G77A C89U A90U G113A G122A U125A G127C,-5.73
9,C13G C56G C88A G110C,-5.35
10,A37G U55G C72A U129A,-1.52
11,C15A A37U C76G,-2.94
12,G44A C101G U133C,-2.92
13,U9A A119G,0.948
14,A6U C79A G110A,-2.78
15,G69U C72U U87A G113A,-1.35
16,A26C G36A G69U G110A,-6.98
17,G45C C56A,-1.46
18,G52A A74U C80U,-1.78
19,A26U G113A,-3.51
20,C20G A46U G120A,-4.96
21,G63C C123G,0.737
22,G63C C123U,0.859
23,U7C G44U,-0.497
24,U7G C49A C70U C85G U130A,-2.22

row,Variant,polymerase ribozyme fitness (log ratio)
1,C28G G63A,-4.42
2,G45U C88U,-0.272
3,C8A C28G C102A U109A,-4.85
4,A68U C82U A91G C101G C123U G128U,-5.8
5,C28U C49U G60U A75G,-3.76
6,G42A C70A C85U,-4.88
7,C12U C13U A74U C97A C123U C124A,-4.56
8,C15G C40A C76G G77C G117C,-0.354
9,U32C G47A G51A,-4.87
10,U33G C34A G48U G117C,-7.42
11,A6C U30G A43C C88U C97G U109G,-6.22
12,A2G C3A G39U U59A A105C U106A C123G,-2.32
13,C12U C73U C97A G110U C115A C124G,-6.74
14,C72A G117A U126A,-1.78
15,C76A C98U,-1.53
16,C8U A29U C70A U87A,-2.4
17,C22A G120A,-4.53
18,A6C C70G C82A,-2.15
19,A37U G39C U54C U59G C89A U112A A121C,-4.68
20,U59A C79U G110A A119C,-3.05
21,C72U C94U G127U,-1.75
22,A18C A46U G71A A84G G117C,-7.1
23,C56A C80U C102A C124U,-2.1
24,C56G G57C U92G U96A U132A,-3.72

row,Variant,polymerase ribozyme fitness (log ratio)
1,A26U A37C C72G G77A C124G,-2.81
2,C3A A37U,-2.19
3,C11U G47C G71U U92G G113C,-5.32
4,C56A U130C,-0.155
5,U7G C12G C13U A46U,-0.346
6,G58A G61A C73A U92A,-5.1
7,C4G A6U C72G A84C C115A,-5.17
8,C11A G60U G71C U87C U112C G117A U130C,-7.15
9,C11A A29U U59A C70A G120A,-1.52
10,U55G C88A C115U C124A G128U,-4.24
11,C4A C40U C62A U112A,-2.53
12,C13U A46G A50U C53U U129C,-2.72
13,U9G G61A C80A A95C G110U C115A A119C,-7.18
14,C40U G48U C79A C124U,-3.57
15,C15A,-1.85
16,G77C G120C,0.526
17,A5C C64A U112C,-6.42
18,C12U A18U C114A G128A U130A,-3
19,C22G G52A G63U U81G G110A,-7.15
20,A43G C101U A108G,-2.96
21,C11G C12U U21G A37U,-2.2
22,A16G C49A C79U G93A G117U C123G,-2.9
23,C13G A37U G42C C53U G77A A121G U130A,-1.06
